Where two headings read alike, the source gives them in different places.
T1: wild type Penicillium oxalicum glucoamylase
T1 sequence: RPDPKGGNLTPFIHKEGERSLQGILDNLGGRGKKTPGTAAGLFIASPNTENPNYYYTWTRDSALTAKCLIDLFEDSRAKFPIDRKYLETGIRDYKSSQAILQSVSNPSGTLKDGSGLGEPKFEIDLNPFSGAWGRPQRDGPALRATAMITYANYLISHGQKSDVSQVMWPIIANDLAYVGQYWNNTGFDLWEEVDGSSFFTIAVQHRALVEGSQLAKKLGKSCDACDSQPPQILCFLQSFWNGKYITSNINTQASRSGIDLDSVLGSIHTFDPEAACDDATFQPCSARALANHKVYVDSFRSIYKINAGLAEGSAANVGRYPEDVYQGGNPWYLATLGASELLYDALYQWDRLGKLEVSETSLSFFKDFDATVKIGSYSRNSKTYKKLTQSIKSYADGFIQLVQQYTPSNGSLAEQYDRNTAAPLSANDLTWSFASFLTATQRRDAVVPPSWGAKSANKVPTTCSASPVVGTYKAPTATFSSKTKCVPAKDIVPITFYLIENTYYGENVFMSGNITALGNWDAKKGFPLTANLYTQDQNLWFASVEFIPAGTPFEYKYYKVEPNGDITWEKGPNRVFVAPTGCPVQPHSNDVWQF

T2: wild type Penicillium oxalicum glucoamylase
T2 chain: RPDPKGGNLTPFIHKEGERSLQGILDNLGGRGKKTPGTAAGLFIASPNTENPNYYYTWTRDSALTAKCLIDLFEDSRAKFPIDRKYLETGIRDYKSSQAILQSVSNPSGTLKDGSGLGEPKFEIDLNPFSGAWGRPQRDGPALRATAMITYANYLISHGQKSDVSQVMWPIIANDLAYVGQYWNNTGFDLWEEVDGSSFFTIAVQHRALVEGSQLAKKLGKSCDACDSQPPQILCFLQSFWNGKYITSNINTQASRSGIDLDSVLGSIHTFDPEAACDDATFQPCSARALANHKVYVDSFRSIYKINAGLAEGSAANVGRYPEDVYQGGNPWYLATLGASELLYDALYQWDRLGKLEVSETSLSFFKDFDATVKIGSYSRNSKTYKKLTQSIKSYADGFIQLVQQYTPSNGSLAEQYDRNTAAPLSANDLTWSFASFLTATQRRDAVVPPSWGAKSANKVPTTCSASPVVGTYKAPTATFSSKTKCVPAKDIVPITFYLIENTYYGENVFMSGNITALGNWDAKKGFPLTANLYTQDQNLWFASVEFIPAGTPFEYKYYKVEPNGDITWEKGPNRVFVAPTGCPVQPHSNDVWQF


Experiments:
[1] = tested on: T1, wild type Penicillium oxalicum glucoamylase
[2] = target: Glucoamylase PE001: variant of the Penicillium oxalicum glucoamylase having a K79V substitution (Penicillium oxalicum); experiment: cell-based or functional assay
[3] = target: wild type Penicillium oxalicum glucoamylase (Penicillium oxalicum); experiment: cell-based or functional assay
[4] = target: T2, wild type Penicillium oxalicum …

| intact glucoamylase (ca. 70 kDa), SDS-PAGE after protease treatment overnight at 4° C. [2] [%] | intact glucoamylase (ca. 70 kDa), SDS-PAGE after protease treatment overnight at 32° C. [2] [%] | intact glucoamylase (ca. 70 kDa), SDS-PAGE after protease treatment overnight at 4° C. [3] [%] | intact glucoamylase (ca. 70 kDa), SDS-PAGE after protease treatment overnight at 32° C. [3] [%] | Molecule | cleaved glucoamylase (ca. 60 kDa), SDS-PAGE after protease treatment overnight at 32° C. [1] [%] | cleaved glucoamylase (ca. 60 kDa), SDS-PAGE after protease treatment overnight at 4° C. [4] [%] | cleaved glucoamylase (ca. 60 kDa), SDS-PAGE after protease treatment overnight at 32° C. [4] [%] |
| --- | --- | --- | --- | --- | --- | --- | --- |
| – | – | – | – | aspergillopepsin I | 10 | – | – |
| 100 | 100 | 100 | 90 | aspergillopepsin I (enzyme) | – | – | – |
| 100 | 100 | 40 | 10 | aorsin (protein) GLNVTNCDQLITPECIRALYKIPSARAAPHPNNSLGIFEEGDYYAQEDLDLFFKTFAKDIPQGTHPIPAFIDGAEAPVPVTKAGGESDLDFELAYPIVHPQSITLYQTDDANWASNTTGFLNTFLDALDGSYCTYCAYGECGNDPSLDPVYPDDAGYDGQLMCGVFKPTNVISVSYGEQENDLPANYQQRQCMEFLKLGLQGVSVLFASGDNGVAGPPGDGNSVNGCLNNGTVFSPAFPNSCPYITNVGATKVYPGYTVSQPESAVYDPDGLYSYASGGGFSNIYPIPDYQAEAVATYFKDHNPPYPYYEGAENLGKNGGLYNRLGRGYPDVAANGDNIAVFNGGEFGSSGGTSASTPIFASIINRIIDERLAVGKGPVGFINPVLYKNPSVLNDITNGTNPGCGTDGFSTAPGWDPATGLGTPNYPKMLKLWLDLP | – | 60 | 90 |
